According to patent US20160090605A1 (ACADEMIA SINICA, published 2016):

Key:
ER-body protein NAI2 = target: T1, ER-body protein NAI2 (Arabidopsis, UniProt Q9LSB4 25-772, limits assumed); assay: yeast two hybrid library screen (AFL1 N-terminus)
T1 construct: also called AT3G15950
T1 sequence: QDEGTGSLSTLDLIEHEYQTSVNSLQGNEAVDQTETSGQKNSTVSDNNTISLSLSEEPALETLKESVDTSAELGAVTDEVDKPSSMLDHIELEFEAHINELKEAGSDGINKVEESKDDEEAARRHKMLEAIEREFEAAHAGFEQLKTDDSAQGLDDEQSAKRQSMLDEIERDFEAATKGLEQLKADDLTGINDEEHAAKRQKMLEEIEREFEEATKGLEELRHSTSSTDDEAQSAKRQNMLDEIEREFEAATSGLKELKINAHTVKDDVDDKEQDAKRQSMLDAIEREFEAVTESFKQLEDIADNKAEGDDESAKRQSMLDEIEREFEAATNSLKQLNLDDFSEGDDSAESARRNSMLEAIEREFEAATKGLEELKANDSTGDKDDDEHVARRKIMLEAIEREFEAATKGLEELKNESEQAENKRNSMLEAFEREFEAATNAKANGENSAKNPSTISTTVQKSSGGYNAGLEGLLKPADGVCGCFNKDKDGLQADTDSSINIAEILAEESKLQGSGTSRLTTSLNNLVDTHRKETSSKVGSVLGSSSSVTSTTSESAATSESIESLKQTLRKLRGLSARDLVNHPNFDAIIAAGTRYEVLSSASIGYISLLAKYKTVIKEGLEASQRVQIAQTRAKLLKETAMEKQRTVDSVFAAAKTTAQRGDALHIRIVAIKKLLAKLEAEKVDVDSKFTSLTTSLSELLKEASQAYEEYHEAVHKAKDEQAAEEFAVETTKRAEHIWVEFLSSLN
Protocol: A yeast two hybrid library was prepared using mRNA from seedlings exposed to −1.2 MPa low water potential stress for 96 h. The library was prepared using the Cloneminer II cDNA construction (Invitrogen) according to the manufacturer's instructions. Yeast two hybrid screening was performed using the ProQuest Two-hybrid system (Invitrogen) following manufacturer's instructions with an N-terminal fragment of AFL1 (amino acids 1 to 208) as bait. The bait fragment was cloned into destination vector pDEST23 and co-transformed into MaV203 along with clones from the cDNA library using LiAc X transformation. […] Colonies that grew on the selective media were re-streaked and subjected to β-galactosidase filter assay to confirm interaction. Out of approximately 8×10⁵ colony forming units screened, clones of PDI5, NAI2, and TSA1 were detected repeatedly. Most of these clones were C-terminal truncations. Full length cDNA clones of PDI5, NAI2 and TSA1 were obtained (using the cloning procedures described above) and confirmed to interact with the AFL1 bait construct in β-galactosidase filter assays.

[1] = target: the molecule itself; assay: mbSUS split-ubiquitin interaction assay, full length AFL1 with itself
Protocol: Mating-based Split-Ubiquitin System (mbSUS) assays were performed as previously described using vectors and yeast strains obtained from the Arabidopsis Biological Resource Center. Full length AFL1 as well as putative interactors were expressed in yeast strains THY.AP4 and THY.AP5, respectively, by recombinational in vivo cloning and plated on SC-Leu-Met or SC-Trp-Ura-Met (SC/+AHL) plates for selection. The interaction was tested by X-gal agarose overlay assay.

B1: AFL1 N-terminal fragment (amino acids 1 to 208) (other)
chain: MALSKDLMLKCSEDMMSAYKSACEEHPKLKSFDASLQQRTNKMIDSLTVEDKNGSSSPHDAHMELSKHLVEVTQGVADFITEIEDDVWDNQALKYLVLAYFENTKKTLEIFKTIENCVENAEMGQLLIREALAEFEKESAEKDVGGKKKKYEKTLEDLKSFKEMGDPFDGKVLTTQFERIKKQQESLLEEVSETRKKIQDEISNLEKK
notes: Yeast two hybrid bait in a ProQuest destination vector (printed as pDEST23); also called AFL1 N-terminus; N-terminal domain of AFL1
B1: binds (ER-body protein NAI2).

B2: At14a-like1 (AFL1), full length (other)
chain: MALSKDLMLKCSEDMMSAYKSACEEHPKLKSFDASLQQRTNKMIDSLTVEDKNGSSSPHDAHMELSKHLVEVTQGVADFITEIEDDVWDNQALKYLVLAYFENTKKTLEIFKTIENCVENAEMGQLLIREALAEFEKESAEKDVGGKKKKYEKTLEDLKSFKEMGDPFDGKVLTTQFERIKKQQESLLEEVSETRKKIQDEISNLEKKTLITNVVFGAAFAIVAVASIALIATGVGAAAGFGALAAPLLAAGWAGVYTTLDKKKDALNKQLEGLKKVEEIEESVEKGIKTNEEATETVSILVDGLEDRIKNMLKLVDNAIDHEDNEAATRIVLTQISKKVEKLTKKITEVGESVEDHSKLIAKARLQVLQKINR
notes: Full-length AFL1; In mbSUS it was a split-ubiquitin fusion expressed in yeast; In BiFC it was a fusion to a YFP half (YFPN or YFPC, the latter MYC-tagged); This entry also stands for native AFL1 in seedling extracts (47 kDa band; co-purified with YFP-AFL1); also called AT3G28270; Full Length AFL1
B2: binds [1].
